Measurements taken from patent publication US20090162358A1 (GlaxoSmithKline, published 2009).
Ends that are not written are not given here. * marks the point of attachment. Biotin = O=C1N[C@H]2[C@H](CS[C@H]2CCCCC(=O)*)N1

T1: N-terminal biotinylated β-amyloid (24-34) peptide
T1 peptide: Biotin-VGSNKGAIIGL

T2: N-terminal coupled CGGGEDVGSNKGAIIGLMVGG (22-38) ovalbumin conjugate (coupled by the N-terminus to ovalbumin)
T2 peptide: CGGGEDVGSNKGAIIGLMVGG

T3: ovalbumin protein (UniProt P01012 2-386)
T3 sequence (looked up): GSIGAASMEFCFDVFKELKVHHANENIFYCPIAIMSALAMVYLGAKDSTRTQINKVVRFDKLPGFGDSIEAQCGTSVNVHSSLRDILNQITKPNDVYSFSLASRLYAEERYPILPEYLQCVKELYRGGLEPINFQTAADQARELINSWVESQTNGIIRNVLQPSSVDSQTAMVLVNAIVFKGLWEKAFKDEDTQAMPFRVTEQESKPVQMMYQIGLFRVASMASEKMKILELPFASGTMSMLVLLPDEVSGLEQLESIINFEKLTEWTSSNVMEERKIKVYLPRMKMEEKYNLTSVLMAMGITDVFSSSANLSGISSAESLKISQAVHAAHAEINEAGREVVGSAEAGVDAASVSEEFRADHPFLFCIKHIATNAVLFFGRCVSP

T4: C-terminally biotinylated peptide representing 28-39 of the β-amyloid sequence
T4 construct: Captured on a streptavidin sensorchip; also called peptide 28-39
T4 peptide: KGAIIGLMVGGVGSG-biotin

T5: C-terminally biotinylated peptide representing 24-35 of the β-amyloid sequence
T5 construct: Captured on a streptavidin sensorchip; also called peptide 24-35
T5 peptide: VGSNKGAIIGLMGSG-biotin

T6: C-terminally biotinylated peptide representing 31-42 of the β-amyloid sequence
T6 construct: Captured on a streptavidin sensorchip; also called peptide 31-42
T6 peptide: IIGLMVGGVVIAGSG-biotin

T7: mouse β-amyloid (1-40) (mouse, UniProt P12023 672-711)
T7 construct: domain: β-amyloid (1-40)
T7 peptide (looked up): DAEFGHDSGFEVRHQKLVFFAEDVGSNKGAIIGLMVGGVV

T8: mouse β-amyloid (1-42) (mouse, UniProt P12023 672-713)
T8 construct: domain: β-amyloid (1-42)
T8 peptide (looked up): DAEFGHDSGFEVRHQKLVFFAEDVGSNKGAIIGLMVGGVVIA


How the values were obtained:
[1] = target: T9, human β-amyloid 1-40 (human, UniProt P05067 672-711); assay: SPR Biacore T100 at 37 C; antibody captured on anti-human IgG, Aβ 1-40 at 1-256 nM
T9 construct: domain: β-amyloid (1-40); Used in solution over captured antibody (Biacore) or coated on ELISA plates; also called human Aβ peptide (1-40); Aβ peptide (1-40)
Method: (§1) Anti-human IgG (Biacore BR-1008-39) was coupled to a CM5 biosensor chip by primary amine coupling. The anti-beta amyloid antibodies were captured on this surface. Beta amyloid (1-40) was then passed over at 256, 64, 16, 4 and 1 nM, with a 0 nM (ie buffer alone passed over the captured antibody surface) used for double referencing. […] The data was analysed using the 1:1 model inherent to the T100. The run was carried out at 25° C. and 37° C. using HBS-EP as the running buffer.
From this panel some constructs were also assessed for binding kinetics at physiological temperature.

[2] = target: T9, human β-amyloid 1-40; assay: SPR Biacore T100; antibody captured on anti-human IgG, Aβ 1-40 at 1-256 nM; 1:1 model
Method: as §1

[3] = target: T9, human β-amyloid 1-40; assay: SPR Biacore 3000; mAb captured on anti-mouse IgG, Aβ 1-40 at 4-500 nM
Method: (§2) Purified mouse antibody preparations were captured on a polyclonal anti-mouse IgG antibody chip surface. Freshly prepared human β-amyloid 1-40 was diluted down in HBS-EP buffer and passed over the captured antibody surface at concentrations ranging from 4-500 nM for 5 minutes. […] Regeneration was achieved via a pulse of 100 mM H₃PO₄. […] All runs were double referenced against a blank surface and blank buffer injections.

[4] = target: T1, N-terminal biotinylated β-amyloid …; assay: FMAT bead immunoassay, culture supernatant
Source text: (§3) Each of the expressed antibodies contained in culture supernatant was then screened in an FMAT (Fluorescent Microvolume Assay Technology) homogenous immunoassay. 29 positive antibodies were identified from this screening cascade that were negative for ovalbumin protein passively absorbed to polystyrene beads but positive for: [0158] (i) N-terminal coupled […] (22-38) (SEQ ID No:73) ovalbumin conjugate bound to polystyrene beads, [0159] (ii) N-terminal biotinylated β-amyloid(1-40) peptide bound to streptavidin coated polystyrene beads, [0160] (iii) C-terminal biotinylated β-amyloid(1-40) peptide bound to streptavidin coated polystyrene beads and [0161] (iv) N-terminal biotinylated β-amyloid (24-34) peptide, residues 24-34 of β-amyloid being […] (SEQ ID No:8), bound to streptavidin coated polystyrene beads.

[5] = target: T2, N-terminal coupled …; assay: FMAT bead immunoassay, culture supernatant
Source text: as §3

[6] = target: T3, ovalbumin protein; assay: FMAT bead immunoassay, culture supernatant
Source text: as §3

[7] = target: T9, human β-amyloid 1-40; assay: SPR Biacore 3000; mAb captured on anti-mouse IgG; triplicate run
Method: as §2

[8] = target: T4, C-terminally biotinylated peptide …; assay: SPR Biacore 3000, biotinylated peptide on streptavidin chip, 6F6 at 8-64 nM
Method: (§4) Purified 6F6 monoclonal antibody was injected for 3 min at 8-64 nM over C-terminally biotinylated peptides representing 24-35 (SEQ ID No:10: […]), 28-39 (SEQ ID No:11: […]) and 31-42 (SEQ ID No:12: […]) of the β-amyloid sequence captured by a streptavidin coated sensorchip. The experiment was performed using a Biacore 3000 instrument. […] It may also indicate that residues 31-35 are not sufficient for binding 6F6 and residues above position 35 appear not to be involved in binding this antibody.

[9] = target: T5, C-terminally biotinylated peptide …; assay: as above
Method: as §4

[10] = target: T6, C-terminally biotinylated peptide …; assay: SPR Biacore 3000, biotinylated peptide on streptavidin chip
Method: as §4

[11] = target: T7, mouse β-amyloid (1-40); assay: SPR Biacore, same method as Table 2
Method: as §2
(§5) The same Biacore method was also used to investigate binding of 6F6 to human and mouse β-amyloid (1-40) and β-amyloid (1-42). 6F6 bound to all of these peptides with similar values.

[12] = target: T8, mouse β-amyloid (1-42); assay: SPR Biacore, same method as Table 2
Method: as §2, §5

[13] = target: T9, human β-amyloid 1-40; assay: SPR Biacore T100, 25 C; antibody captured on protein A, Aβ 1-40 at 2-256 nM; mean of three experiments
Method: The affinity of selected heavy and light chain combinations was determined using a Biacore T100 instrument. Three independent experiments were performed using humanised antibody immobilised via protein A surface Biacore chips and injection of β-amyloid 1-40 peptides. The chimeric molecule of 6F6 served as a reference molecule. For this Protein A was immobilised on a CM5 chip by primary amine coupling in accordance with manufactures recommendations. Anti-β-amyloid antibodies were captured on this surface and after a period of stabilisation human β-amyloid 1-40 was passed over at concentrations 256-2 nM in halving dilutions. A buffer injection over the captured antibody surface was used to double reference the data set in accordance with Biacore best practice. […] The work was carried out in HBS-EP at 25° C. Results are summarised in Table 13 as the mean of all three experiments.

[14] = target: T10, biotinylated β-amyloid 1-40 (human Aβ1-40 peptide in solution, competition ELISA) (human, UniProt P05067 672-711, biotin, position not stated); assay: competition ELISA: antibody pre-incubated with biotinylated Aβ 1-40, free Aβ captured on immobilised mouse 6F6 (competitor); Exp 1
T10 construct: domain: β-amyloid (1-40)
Method: (§6) 6F6c and humanised antibodies H₁₁L2, H11L9, H11L10, H11L12 and H11L13 were assessed for their ability to bind Aβ1-40 peptide in solution and inhibit the interaction of human Aβ1-40 peptide with mouse 6F6 monoclonal antibody in a competition ELISA. A constant concentration of biotinylated β-amyloid 1-40 was pre-incubated with serial diluted amounts of humanised 6F6 antibody variants. The mixture including complexed and free amyloid was then added to wells containing immobilised mouse 6F6 monoclonal antibody and incubated for 15 minutes at room temperature. Plates were washed and the amount of free β-amyloid that was still available for binding the immobilised parental 6F6 monoclonal antibody was then detected using streptavidin-HRP conjugate.

[15] = target: T10, biotinylated β-amyloid 1-40 (human …); assay: competition ELISA: antibody pre-incubated with biotinylated Aβ 1-40, free Aβ captured on immobilised mouse 6F6 (competitor); Exp 2
Method: as §6

T10 sequence (P05067 672-711 limits assumed): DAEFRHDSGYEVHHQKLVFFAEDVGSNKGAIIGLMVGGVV

Binder	Kd [1]	Kd [2]	Kd [3]	koff [3]	kon [3]	binding result [4]	binding result [5]	binding result [6]	Kd [7]	koff [7]	kon [7]	binding result [8]	binding result [9]	binding result [10]	binding result [11]	binding result [12]	Kd [13]	IC50 [14]	IC50 [15]
5D1 mouse monoclonal antibody (antibody, V domains shown, Mouse hybridoma antibody) VH: EVQLQQSGAELVKPGASVKLSCTGSGFNIKVYYVHWLKQLTEQGLEWIGRIDPENGETKYAPKFQDKATLTVDTSSNTAYLHLSSLTSEDTAVYYCVSSGYWGQGTTLTVSS VL: DIVMTQSAFSNPVTLGTSASISCRSSKSLLHRNGITYLYWYLQKPGQSPQLLIYQMSNLASGVPDRFTSSGSGTDFTLKISRVEAEDVGVYYCAQNLELWTFGGGTKLEIK	–	–	2.57 nM	0.000147 s⁻¹	57000 M⁻¹ s⁻¹	binds	binds	no binding	2.05 nM	0.000135 s⁻¹	65800 M⁻¹ s⁻¹	–	–	–	–	–	–	–	–
6F6 murine monoclonal antibody (antibody, mouse IgG2a, V domains shown, also called 6F6 parental monoclonal antibody; mouse 6F6 monoclonal antibody) VH: EVQLQQSGAELVEPGASVKLSCTGSGFNIKVYYVHWLKQLTEQGLEWIGRIDPENGETIYTPKFQDKATLTVDTSSNTAYLQLSSLTSEDAAVYYCVSSGYWGQGTTLTVSS VL: DIVMTQSAFSNPVTLGTSASISCRSSKSLLHRNGITYLYWYLQKPGQPPQLLIYQMSNLASGVPDRFTSSGSGTDFTLKISRVEAEDVGVYYCAQNLELWTFGGGTKLEIK	–	–	0.62 nM	6.57e-05 s⁻¹	106000 M⁻¹ s⁻¹	binds	binds	no binding	1.02 nM	9.4e-05 s⁻¹	99300 M⁻¹ s⁻¹	binds	binds	no binding (tested: 8-64 nM)	binds	binds	–	–	–

Now from value to binder:

Kd [1]	Kd [2]	Kd [3]	koff [3]	kon [3]	binding result [4]	binding result [5]	binding result [6]	Kd [7]	koff [7]	kon [7]	binding result [8]	binding result [9]	binding result [10]	binding result [11]	binding result [12]	Kd [13]	IC50 [14]	IC50 [15]	Binder
2.9 nM	2.05 nM	–	–	–	–	–	–	–	–	–	–	–	–	–	–	–	–	–	humanised de-immunised construct H51L21 (antibody, human IgG1, V domains shown) VH: QVQLVQSGAEVKEPGASVKVSCKGSGFNIHTYYVHWLRQLPEKGLEWIGRIDPENGETIYTPKFQDKATLTVDTSTDTAYMELSSLRSEDTAVYYCVSSGYWGQGTLVTVSS VL: DIVMTQSPLSNPVTPGEPASISCRSSKSLLHRNGKTYLYWYLQKPGQSPQLLIYQMDNLASGVPDRFSSSGSGTDFTLKISRVEAEDVGVYYCAQNLELWTFGQGTKVEIK
–	1 nM	–	–	–	–	–	–	–	–	–	–	–	–	–	–	3.74 nM	0.566 µg/mL	0.451 µg/mL	chimeric 6F6 antibody (6F6c) (antibody, human IgG1, V domains shown, Murine V regions on human IgG1 (Fc disabled) and human C kappa; also called 6F6 Chimera (pur); chimeric molecule of 6F6) VH: EVQLQQSGAELVEPGASVKLSCTGSGFNIKVYYVHWLKQLTEQGLEWIGRIDPENGETIYTPKFQDKATLTVDTSSNTAYLQLSSLTSEDAAVYYCVSSGYWGQGTLVTVSS VL: DIVMTQSAFSNPVTLGTSASISCRSSKSLLHRNGITYLYWYLQKPGQPPQLLIYQMSNLASGVPDRFTSSGSGTDFTLKISRVEAEDVGVYYCAQNLELWTFGGGTKLEIK
